As usually defined, the Kd is the concentration at which binding is half-saturated. A low value points to a tighter complex.

From doi:10.1101/2021.09.10.459738 come the findings set out here.

The target in this test is heat-denatured ovalbumin (UniProt P01012). The test is described as follows: ELISA. In general terms: ELISA stands for enzyme-linked immunosorbent assay.
UniProt P01012, sequence (P01012 whole entry): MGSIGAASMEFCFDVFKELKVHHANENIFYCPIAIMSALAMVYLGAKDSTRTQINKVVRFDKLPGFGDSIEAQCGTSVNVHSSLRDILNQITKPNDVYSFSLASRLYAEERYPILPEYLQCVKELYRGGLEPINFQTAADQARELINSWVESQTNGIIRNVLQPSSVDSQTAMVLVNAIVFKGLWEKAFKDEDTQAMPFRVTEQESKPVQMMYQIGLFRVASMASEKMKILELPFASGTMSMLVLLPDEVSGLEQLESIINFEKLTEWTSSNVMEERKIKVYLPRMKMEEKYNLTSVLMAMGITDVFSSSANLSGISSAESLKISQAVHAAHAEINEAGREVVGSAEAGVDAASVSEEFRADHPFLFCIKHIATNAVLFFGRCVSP

With “human IRE1α-LD-Fc fusion protein (from UniProt O75460 19-443)”, the Kd was 300 µM.
